Data as given in US20190062411A1 (AstraZeneca / MedImmune, published 2019).
Positions count from the first letter of the chain named.

B1: Kp3 (antibody, IgG1, V domains shown)
VH: QVQLQESGPGLVKPSETLSLTCTVSGGSMNSNSNTYYWGWIRQPPGKGLEWIGTIHSSGRTYYNPSLKSRVTISVDMSKNQFSLNLTSATAADTAVYYCARDLSGASLAPRRPFNYYYYNMDVWGRGTLVTVSS
VL: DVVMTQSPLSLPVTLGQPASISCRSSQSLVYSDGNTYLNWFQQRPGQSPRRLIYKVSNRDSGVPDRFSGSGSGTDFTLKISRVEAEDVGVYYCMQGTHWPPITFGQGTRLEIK
notes: constant regions are not; also called anti-MrkA mAb Kp3; MAb Kp3
B2: Kp16 (antibody, V domains shown)
VH: QVQLQQSGAEVKKPGASVKVSCKASGYALTTYYMHWVRQAPGQGLQWMGMINPSSGSTIYAQPFRGRVTLTRDTSSGTVFMDLSSLTSEDTAIYYCARGNYGSSFGYWGKGTMVTVSS
VL: not shown
B3: anti-MrkA clone 5 (IgG1) (antibody, V domains shown)
VH: QVQLVQSGAEVKKPGASLKVSCKASGYTFTAYYMHWVRQAPGHGLEWMGWINPSSGGTNSAQKFQGRVTMTRDTSINTAYMELSRLTSDDTAVYYCARGTIGAAGNYWGQGTLVTVSS
VL: QSVLTQPPSASGTPGQRVTISCSGSRPNIGGNTVNWYQQLPGAAPKLLIYSNSQRPSGVPDRFSGSKYGTSASLAISGLQSDDEADYYCAAWDDSLTGPVFGGGTKLTIL
notes: also called St3_C5; IgG clone 5
B4: Clone 5 Fab (Fab, V domains shown)
VH: B3 VH
VL: B3 VL
notes: also called Clone 5 (Fab format)
B5: anti-MrkA clone 4 (IgG1) (antibody, V domains shown)
VH: QLQLQESGPGLVKPSGTLSLTCAVSGDSIDNANWWSWVRQTPGKGLEWIGEIYHSGTTYYNPSLKSRVTISIDNSKNQFSLALTSVTAADTAVYYCARDRDITSRGTFDVWGRGTMVTVSS
VL: DIQMTQSPSTLSASIGDRVTITCRASEGIYHWLAWYQQKPGKAPKLLIYKASSLASGAPSRFSGSGSGTDFTLTISSLQPDDFATYYCQQYSNYPLTFGGGTKLEIK
notes: also called St2_C4; IgG clone 4
B6: anti-MrkA clone 6 (IgG1) (antibody, V domains shown)
VH: QVQLVQSGAEVRKPGASVTLSCRTSGYTFTSYAVHWVRQAPGQGLEWMGGVNGGNGNTRFSQKFQDRLMIVRDRSANTASMELRSLTSEDTAVYYCARADDCSGVGCHPWFDPWGQGTLVTVSS
VL: SVILTQPPSVSVSPGQTANITCSGDKLGDKYTSWYLQKPGQSPVLLIFQDTKRPSDIPERFSGSNSGNTATLTISGTQAVDEADYYCQAWDSDSGTATFGGGTKLTVL
notes: also called St4_C6; IgG clone 6
B7: anti-MrkA clone 1 (IgG1) (antibody, V domains shown)
VH: B6 VH with L20V, S21F, T28I, V51I, F60I, K63R, V71T, V93I, Q116R
VL: QSVLTQPPSVSVSPGHTASITCSGDKLGDKYVSWYQQKSGQSPVLVMYKDTKRPSGIPERFSGSNSGNTATLAISGTQAVDEADYFCQAWDRSIMIFGGGTKVTVL
notes: also called St1_C1; IgG clone 1
B8: Clone 1 Fab (Fab, V domains shown)
VH: B6 VH with L20V, S21F, T28I, V51I, F60I, K63R, V71T, V93I, Q116R
VL: B7 VL
notes: also called Clone 1 (Fab format)

How the values were obtained:
[1] = molecular target: T1, biotinylated recombinant his-tagged MrkA, mixture of monomeric and oligomeric MrkA (Klebsiella pneumoniae, UniProt P12267 23-202, biotin-labeled (Pierce kit; sites not stated)); test: BLI (Octet), biotinylated MrkA on streptavidin sensors, IgG in solution, 1:1 fit
T1 construct: also called biotinylated-MrkA; a mixture of monomeric and multimeric MrkA; not shown: his tag
T1 chain: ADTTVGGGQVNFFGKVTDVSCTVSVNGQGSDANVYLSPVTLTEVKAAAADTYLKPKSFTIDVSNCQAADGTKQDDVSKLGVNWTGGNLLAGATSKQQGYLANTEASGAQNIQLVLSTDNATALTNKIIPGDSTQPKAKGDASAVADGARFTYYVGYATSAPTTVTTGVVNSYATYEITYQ

[2] = molecular target: T2, MrkA with both the N and C terminal deletions (MrkA-N/C-dlt) (Klebsiella pneumoniae, UniProt P12267 41-170); test: ELISA on plates coated directly with cleared lysate of E. coli expressing the His-tagged construct; y axis without a label
T2 construct: Lysate of E. coli coated on the ELISA plate; not shown: His tag added at the C terminus
T2 chain: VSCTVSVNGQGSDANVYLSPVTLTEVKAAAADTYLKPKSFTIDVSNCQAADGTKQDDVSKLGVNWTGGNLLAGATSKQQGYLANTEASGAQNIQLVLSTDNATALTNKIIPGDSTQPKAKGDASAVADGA

[3] = molecular target: T3, MrkA with a 40 amino acid N-terminal deletion (MrkA-N-dlt) (Klebsiella pneumoniae, UniProt P12267 41-202); test: as above
T3 construct: Lysate of E. coli coated on the ELISA plate; not shown: His tag added at the C terminus
T3 chain: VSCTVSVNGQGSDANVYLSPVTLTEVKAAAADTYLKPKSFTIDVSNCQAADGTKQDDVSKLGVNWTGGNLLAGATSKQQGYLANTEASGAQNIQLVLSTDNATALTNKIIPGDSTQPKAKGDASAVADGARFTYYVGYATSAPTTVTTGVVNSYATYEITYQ

[4] = molecular target: T1, biotinylated recombinant his-tagged …; test: ELISA, MrkA protein coated directly onto the plate, not biotinylated (title: anti-MrkA IgG binding to MrkA)
[5] = molecular target: T1, biotinylated recombinant his-tagged …; test: ELISA, biotinylated MrkA captured by streptavidin (title: anti-MrkA IgG binding to bio-MrkA)
[6] = molecular target: T4, MrkA on the surface of live or whole K. pneumoniae bacteria (Klebsiella pneumoniae, UniProt P12267 23-202); test: whole cell ELISA on K. pneumoniae strain 29011 (title: Kp29011 ELISA)
T4 construct: Target of whole-bacteria ELISA, FACS and confocal assays; The strain is named under assay in each row; On bacteria MrkA is assembled into fimbriae (oligomeric); also called K. pneumoniae MrkA; type III fimbriae major subunit MrkA
T4 chain: T1 chain
Protocol: Briefly, a single colony of K. pneumoniae was inoculated into 2xYT media until the culture reached log phase. Bacteria were coated onto 384-well plates (Nunc MaxiSorp) overnight at 4° C. […] After blocking with PBS supplemented with 4% BSA (PBS-B), the coated plates were incubated with anti-K. pneumoniae antibodies for 1 h. The plates were then washed with PBS-T (PBS+0.1% Tween 20) before HRP-conjugated secondary antibody was added for 1 h followed by washing and TMB (3, 3′, 5, 5′-Tetrametheylbenzidine) substrate addition. Color development was stopped by adding 0.1 N HCL, and the absorbance at 450 nm was measured by microplate reader (Molecular Devices). The data was plotted with Prism software.

[7] = molecular target: T5, monomeric MrkA (purified, BLI) (Klebsiella pneumoniae, UniProt P12267 23-202); test: BLI (Octet), Fab against monomeric MrkA
T5 construct: not shown: N terminal 6x his tag from pET28
T5 chain: T1 chain

| Binder | Kd [1] [nM] | koff [1] [s⁻¹] | kon [1] [M⁻¹ s⁻¹] | binding result [2] | binding result [3] | EC50 (read off the curve) [4] [µg/mL] | EC50 (read off the curve) [5] [µg/mL] | EC50 (read off the curve) [6] [µg/mL] | Kd [7] [nM] | koff [7] [s⁻¹] | kon [7] [M⁻¹ s⁻¹] |
| --- | --- | --- | --- | --- | --- | --- | --- | --- | --- | --- | --- |
| B1 | 0.15 | 1.2e-05 | 76000 | no binding | no binding | ~0.01 | ~0.01 | ~0.08 | – | – | – |
| B2 | – | – | – | – | – | – | – | ~0.08 | – | – | – |
| B3 | 3.54 | 9.2e-05 | 26000 | – | – | ~0.01 | ~0.2 | – | – | – | – |
| B4 | – | – | – | – | – | – | – | – | 1520 | 0.0782 | 50000 |
| B5 | 3.61 | 0.000146 | 40600 | – | – | ~0.01 | ~0.1 | – | – | – | – |
| B6 | 8.8 | 0.0002 | 22000 | – | – | ~0.01 | ~0.01 | – | – | – | – |
| B7 | 3.25 | 0.00017 | 53000 | – | – | ~0.01 | ~0.01 | – | – | – | – |
| B8 | – | – | – | – | – | – | – | – | 2.76 | 0.00034 | 150000 |
